In assay [1] the target is T1, HCoV-OC43-N protein (HCoV-OC43, UniProt P33469 1-448).
T1 construct: also called OC43-CoV N
T1 chain: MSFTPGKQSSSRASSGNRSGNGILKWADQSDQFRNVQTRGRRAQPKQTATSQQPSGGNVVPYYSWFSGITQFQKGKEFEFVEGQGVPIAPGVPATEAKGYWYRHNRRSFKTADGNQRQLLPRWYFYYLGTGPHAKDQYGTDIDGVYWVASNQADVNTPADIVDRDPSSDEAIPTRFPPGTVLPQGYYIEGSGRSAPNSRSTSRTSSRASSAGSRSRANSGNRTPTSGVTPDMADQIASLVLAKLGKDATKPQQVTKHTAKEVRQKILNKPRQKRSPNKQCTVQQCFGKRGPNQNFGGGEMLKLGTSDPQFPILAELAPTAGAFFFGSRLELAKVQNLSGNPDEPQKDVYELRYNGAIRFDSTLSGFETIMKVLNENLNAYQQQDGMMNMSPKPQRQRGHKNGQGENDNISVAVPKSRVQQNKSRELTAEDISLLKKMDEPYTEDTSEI
The experiment in a line: ELISA, IgG1 on recombinant N protein.

Assay [2] has as its target T2, HCoV-NL63-N protein (HCoV-NL63, UniProt Q6Q1R8 1-377).
T2 construct: also called NL63-CoV N
T2 sequence: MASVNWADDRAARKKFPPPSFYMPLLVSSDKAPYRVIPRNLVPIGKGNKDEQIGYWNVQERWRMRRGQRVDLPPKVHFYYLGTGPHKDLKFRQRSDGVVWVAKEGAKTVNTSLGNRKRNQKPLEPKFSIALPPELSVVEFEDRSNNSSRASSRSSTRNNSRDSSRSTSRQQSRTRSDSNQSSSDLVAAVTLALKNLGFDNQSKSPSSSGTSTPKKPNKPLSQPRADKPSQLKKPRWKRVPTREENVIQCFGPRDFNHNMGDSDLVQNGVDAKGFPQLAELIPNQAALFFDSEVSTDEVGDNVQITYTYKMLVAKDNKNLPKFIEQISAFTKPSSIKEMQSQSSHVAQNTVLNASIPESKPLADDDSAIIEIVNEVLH
The experiment in a line: ELISA, IgG1 on recombinant N protein.

Assay [3] deals with T3, MERS-CoV-N protein (MERS-CoV, UniProt K9N4V7 1-411).
T3 construct: also called MERS-CoV nucleocapsid protein
Description: ELISA, IgG1 on recombinant N protein.

The target in assay [4] is T4, SARS-CoV-1-N protein (SARS-CoV-1, UniProt P59595 1-422).
T4 construct: also called SARS-CoV N; SARS-CoV-N
Description: ELISA, IgG1 on recombinant N protein.

The target in assay [5] is T5, HCoV-HKU1-N protein (HCoV-HKU1, UniProt Q5MQC6 1-441).
T5 construct: also called HKU1-CoV N
T5 chain: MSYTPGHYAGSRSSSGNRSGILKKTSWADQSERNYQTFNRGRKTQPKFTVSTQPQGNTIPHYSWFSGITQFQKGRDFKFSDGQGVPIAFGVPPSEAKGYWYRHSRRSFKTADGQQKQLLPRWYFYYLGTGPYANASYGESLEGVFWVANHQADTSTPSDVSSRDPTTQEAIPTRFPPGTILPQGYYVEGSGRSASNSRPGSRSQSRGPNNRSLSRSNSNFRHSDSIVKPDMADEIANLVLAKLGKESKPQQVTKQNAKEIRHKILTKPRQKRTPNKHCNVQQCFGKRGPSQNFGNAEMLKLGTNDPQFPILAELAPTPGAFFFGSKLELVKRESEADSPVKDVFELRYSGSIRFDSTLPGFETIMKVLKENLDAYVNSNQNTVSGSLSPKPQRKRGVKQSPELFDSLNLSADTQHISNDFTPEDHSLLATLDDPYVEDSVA
The experiment in a line: ELISA, IgG1 on recombinant N protein.

Assay [6] addresses T6, SARS-CoV-2-N protein (SARS-CoV-2, UniProt P0DTC9 1-419).
Assay [7] concerns the target T6, SARS-CoV-2-N protein. The experiment in a line: ELISA, IgG1 on recombinant N protein.

Like-named read-outs stand apart in the source and are kept apart here.

B1: antibody #11 (antibody, V domains shown)
VH: EVQLVESGGGLVQPGGSLRLSCAASGFTIQDRMIHWVRQAPGKGLEWVASILPFLGATWYADSVKGRFTISADTSKNTAYLQMNSLRAEDTAVYYCARSWFSPFDYWGQGTLVTVSS
VL: DIQMTQSPSSLSASVGDRVTITCRASQDVGGSVAWYQQKPGKAPKLLISFPGGLYSGVPSRFSGSGSGTDFTLTISSLQPEDFATYYCQQYFSWPITFGQGTKVEIKR
notes: also called D11; C11
Turning to B1, the EC50 in assay [1] was more than 2 µg/mL; in assay [2] it was more than 2 µg/mL; in assay [3] it was more than 2 µg/mL; in assay [4] it was 0.0069 µg/mL; in assay [5], more than 2 µg/mL.

B2: antibody #7 (antibody, V domains shown)
VH: EVQLVESGGGLVQPGGSLRLSCAASGFTIEDRWIHWVRQAPGKGLEWVASIWPMEGLTRYADSVKGRFTISADTSKNTAYLQMNSLRAEDTAVYYCARGYYGFDYWGQGTLVTVSS
VL: DIQMTQSPSSLSASVGDRVTITCRASQDVEARVAWYQQKPGKAPKLLIFTSTRLYSGVPSRFSGSGSGTDFTLTISSLQPEDFATYYCQQIMPLPTTFGQGTKVEIKR
notes: also called C07
Take B2: the half-maximal effective concentration (EC50) in assay [6] was 0.018 µg/mL; in assay [1], more than 2 µg/mL; in assay [2], more than 2 µg/mL; in assay [3], more than 2 µg/mL; in assay [7], 0.0037 µg/mL; in assay [4], 0.0037 µg/mL. The EC50 in assay [5] was more than 2 µg/mL.

B3: antibody #33 (antibody, V domains shown)
VH: EVQLVESGGGLVQPGGSLRLSCAASGFTINNGGIHWVRQAPGKGLEWVAGIWPFWGSTSYADSVKGRFTISADTSKNTAYLQMNSLRAEDTAVYYCARGSYGFDYWGQGTLVTVSS
VL: DIQMTQSPSSLSASVGDRVTITCRASQDVYSSVAWYQQKPGKAPKLLIFGSSFLYSGVPSRFSGSGSGTDFTLTISSLQPEDFATYYCQQYYDWPITFGQGTKVEIKR
notes: also called D33; C33
On to B3, for which the EC50 is 0.0255 µg/mL in assay [6]; more than 2 µg/mL in assay [1]; more than 2 µg/mL in assay [2]; more than 2 µg/mL in assay [3]; 0.0014 µg/mL in assay [7]; 0.0016 µg/mL in assay [4]. Besides, the half-maximal effective concentration (EC50) in assay [5] is more than 2 µg/mL.

B4: antibody #48 (antibody, V domains shown)
VH: EVQLVESGGGLVQPGGSLRLSCAASGFTISNFGIHWVRQAPGKGLEWVAGIWPYGGYTFYADSVKGRFTISADTSKNTAYLQMNSLRAEDTAVYYCARFDSYSYSGYMDYWGQGTLVTVSS
VL: DIQMTQSPSSLSASVGDRVTITCSGSSSNIGDNNVYWYQQKPGKAPKLLIFGPAYLYSGVPSRFSGSGSGTDFTLTISSLQPEDFATYYCAAGYSDNNGITFGQGTKVEIKR
notes: also called C48
In the case of B4, the concentration for a half-maximal effect (EC50) in assay [6] is 0.0207 µg/mL; in assay [1], more than 2 µg/mL; in assay [2] it was more than 2 µg/mL; in assay [3] it was more than 2 µg/mL; in assay [7], 0.0467 µg/mL; in assay [4], 0.0186 µg/mL. Further, the EC50 in assay [5] was more than 2 µg/mL.

B5: antibody #21 (antibody, V domains shown)
VH: EVQLVESGGGLVQPGGSLRLSCAASGFTINNGSIHWVRQAPGKGLEWVAWIWPFGGYTYYADSVKGRFTISADTSKNTAYLQMNSLRAEDTAVYYCARGSYGYDYWGQGTLVTVSS
VL: DIQMTQSPSSLSASVGDRVTITCRASQDVGSNVAWYQQKPGKAPKLLIFSAPFLYSGVPSRFSGSGSGTDFTLTISSLQPEDFATYYCQQFYDWPLTFGQGTKVEIKR
notes: also called D21
B5: the concentration giving a half-maximal response (EC50) in assay [1] was more than 2 µg/mL; in assay [2], more than 2 µg/mL; in assay [3], more than 2 µg/mL; in assay [7], 0.018 µg/mL; in assay [4] it was 0.0214 µg/mL; in assay [5], more than 2 µg/mL.

B6: antibody #22 (antibody, V domains shown)
VH: EVQLVESGGGLVQPGGSLRLSCAASGFTISSGSIHWVRQAPGKGLEWVASIWPFGGYTSYADSVKGRFTISADTSKNTAYLQMNSLRAEDTAVYYCARGSFGSDYWGQGTLVTVSS
VL: DIQMTQSPSSLSASVGDRVTITCRASQDVDDNVAWYQQKPGKAPKLLISSSSGLYSGVPSRFSGSGSGTDFTLTISSLQPEDFATYYCQQSYNGPITFGQGTKVEIKR
notes: also called D22
Take B6: the concentration giving a half-maximal response (EC50) in assay [1] was more than 2 µg/mL; in assay [2], more than 2 µg/mL; in assay [3] it was more than 2 µg/mL; in assay [7] it was 0.0044 µg/mL; in assay [4], 0.0039 µg/mL; in assay [5], more than 2 µg/mL.

B7: antibody #36 (antibody, V domains shown)
VH: EVQLVESGGGLVQPGGSLRLSCAASGFTINRYSIHWVRQAPGKGLEWVAGIWPFGGDTTYADSVKGRFTISADTSKNTAYLQMNSLRAEDTAVYYCARGATSHDYWGQGTLVTVSS
VL: DIQMTQSPSSLSASVGDRVTITCRASQDVTTTVAWYQQKPGKAPKLLINKGSWLYSGVPSRFSGSGSGTDFTLTISSLQPEDFATYYCQQYNKWPLTFGQGTKVEIKR
notes: also called IgG1#36; D36
Take B7: the half-maximal effective concentration (EC50) was 0.0288 µg/mL in assay [6]; more than 2 µg/mL in assay [1]; more than 2 µg/mL in assay [2]; more than 2 µg/mL in assay [3]; 0.0008 µg/mL in assay [7]; 0.002 µg/mL in assay [4]. Also, the EC50 in assay [5] is more than 2 µg/mL.
